Assay results: US20100015126A1, “Methods of Binding of Cross-Beta Structures By Chaperones” (priority 2006, published 2010)

Columns and labels:
[1] = target: 187 kDa protein/Complement component 3 (human) (UniProt P01024); test: BiP-Sepharose pull-down, RA patient III serum (B4), MS of urea eluate; may be indirect
[2] = target: Alpha-1-antitrypsin precursor/Serpin peptidase inhibitor, clade A, member 1 (human) (UniProt P01009); test: as above
[3] = target: Complement component 4 binding protein, alpha, C4b-binding protein alpha chain precursor (C4bp) (human) (UniProt P04003); test: as above
[4] = target: Dapper homolog 1 (hDPR1) (human) (UniProt Q9NYF0); test: as above
[5] = target: GCN1 general control of amino-acid synthesis 1-like 1 (yeast)/GCN1-like protein 1 (HsGCN1) (human) (UniProt Q92616); test: as above
[6] = target: Hypothetical protein DKFZp686I04196 (Fragment)/Immunoglobulin heavy constant gamma 2 (G2m marker)/Ig gamma-2 chain C region (human) [IgG part: P01859]; test: as above
[7] = target: IGLC1 protein (immunoglobulin lambda C1)/immunoglobulin lambda chain/immunoglobulin C1 segment protein (fragment) (human) (UniProt P0CG04); test: as above
[8] = target: Ig lambda chain V-III region SH (human) (UniProt P01714); test: as above
[9] = target: Immunoglobulin J chain, Immunoglobulin J polypeptide (human) (UniProt P01591); test: as above
[10] = target: Immunoglobulin lambda variable 3-25/V2-17 protein (Fragment) (human) (UniProt P01717); test: as above
[11] = target: Phosphatase and actin regulator 4 isoform 1/Hypothetical protein DKFZp686L07205 (human) (UniProt Q8IZ21); test: as above
[12] = target: V1-3 protein (Fragment)/immunoglobulin lambda variable 2-11 (human) (UniProt P01706); test: as above
[13] = target: Vitronectin precursor (Serum-spreading factor/S-protein) (human) (UniProt P04004); test: as above
[14] = target: IGHM protein, coagulation factor VII (serum prothrombin conversion accelerator) (human) (UniProt P08709); test: BiP-Sepharose pull-down, RA synovial fluid sample 4B, 1 M NaCl eluate, MS; may be indirect
[15] = target: Isoform H17 of Myeloperoxidase precursor (human) (UniProt P05164); test: as above
[16] = target: Heat shock 70 kDa protein 1L (human) (UniProt P34931); test: BiP-Sepharose pull-down, RA synovial fluid sample 6B, 1 M NaCl eluate, MS; may be indirect
[17] = target: Vitronectin precursor (Serum-spreading factor/S-protein) (human) (UniProt P04004); test: as above
[18] = target: 25 kDa protein/immunoglobulin lambda chain/rheumatoid factor G9 light chain (lambda V3)/IGLC1 protein (human) (UniProt P0CG04); test: BiP-Sepharose pull-down, AL amyloidosis patient II plasma (B3), MS of urea eluate; may be indirect
[19] = target: Apolipoprotein E precursor/Apolipoprotein E/Apolipoprotein E3 (Fragment) (human) (UniProt P02649); test: as above
[20] = target: Complement factor H-related protein 3 precursor (human) (UniProt Q02985); test: as above
[21] = target: Dynein heavy chain domain 3/KIAA1503 protein (Fragment) (human) (UniProt Q9P225); test: as above
[22] = target: Hypothetical protein/Ig kappa chain V-II region RPMI 6410 precursor (human) (UniProt P06310); test: as above
[23] = target: IGLC1 protein (immunoglobulin lambda C1)/immunoglobulin lambda chain/immunoglobulin C1 segment protein (fragment) (human) (UniProt P0CG04); test: as above
[24] = target: Immunoglobulin heavy constant gamma 3 (G3m marker)/Ig gamma-3 chain C region (human) (UniProt P01860); test: as above
[25] = target: Isoform 1 of Plectin-1 (human) (UniProt Q15149); test: as above
[26] = target: V1-3 protein (Fragment)/immunoglobulin lambda variable 2-11 (human) (UniProt P01706); test: as above
[27] = target: Hypothetical protein/Heat shock 70 kDa protein 5 (glucose-regulated protein, 78 kDa = GRP78 = BiP = HSPA5), as identified in eluates (human) (UniProt P11021); test: BiP-Sepharose pull-down, RA synovial fluid sample 2B, 1 M NaCl eluate, MS; BiP may stem from the column
[28] = target: Hypothetical protein/Heat shock 70 kDa protein 5 (glucose-regulated protein, 78 kDa = GRP78 = BiP = HSPA5), as identified in eluates (human) (UniProt P11021); test: BiP-Sepharose pull-down, RA synovial fluid sample 5B, 1 M NaCl eluate, MS; BiP may stem from the column

Chain of IGLC1 protein (immunoglobulin lambda C1)/immunoglobulin lambda chain/immunoglobulin C1 segment protein (fragment) (human) (P0CG04 whole entry, the tested form may be a part): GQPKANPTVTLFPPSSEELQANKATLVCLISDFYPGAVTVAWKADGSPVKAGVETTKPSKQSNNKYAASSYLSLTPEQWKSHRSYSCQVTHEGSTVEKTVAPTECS
Chain of V1-3 protein (Fragment)/immunoglobulin lambda variable 2-11 (human) (P01706 20-119 limits assumed): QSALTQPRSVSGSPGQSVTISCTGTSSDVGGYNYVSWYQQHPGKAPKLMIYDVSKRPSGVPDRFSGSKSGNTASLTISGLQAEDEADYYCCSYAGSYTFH
Chain of Vitronectin precursor (Serum-spreading factor/S-protein) (human) (P04004 20-478 limits assumed): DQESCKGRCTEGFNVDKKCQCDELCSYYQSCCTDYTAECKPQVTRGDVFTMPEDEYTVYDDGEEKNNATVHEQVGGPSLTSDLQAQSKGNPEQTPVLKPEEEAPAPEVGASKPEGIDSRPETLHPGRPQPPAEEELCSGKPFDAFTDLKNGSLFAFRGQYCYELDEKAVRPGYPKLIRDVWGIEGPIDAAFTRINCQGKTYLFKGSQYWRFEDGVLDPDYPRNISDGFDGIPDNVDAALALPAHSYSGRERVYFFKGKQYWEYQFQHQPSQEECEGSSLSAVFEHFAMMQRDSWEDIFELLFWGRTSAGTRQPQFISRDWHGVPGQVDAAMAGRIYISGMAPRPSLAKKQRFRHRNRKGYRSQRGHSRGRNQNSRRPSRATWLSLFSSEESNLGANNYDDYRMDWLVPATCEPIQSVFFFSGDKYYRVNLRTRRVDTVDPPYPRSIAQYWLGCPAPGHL
Chain of Hypothetical protein/Heat shock 70 kDa protein 5 (glucose-regulated protein, 78 kDa = GRP78 = BiP = HSPA5), as identified in eluates (human) (P11021 19-654 limits assumed): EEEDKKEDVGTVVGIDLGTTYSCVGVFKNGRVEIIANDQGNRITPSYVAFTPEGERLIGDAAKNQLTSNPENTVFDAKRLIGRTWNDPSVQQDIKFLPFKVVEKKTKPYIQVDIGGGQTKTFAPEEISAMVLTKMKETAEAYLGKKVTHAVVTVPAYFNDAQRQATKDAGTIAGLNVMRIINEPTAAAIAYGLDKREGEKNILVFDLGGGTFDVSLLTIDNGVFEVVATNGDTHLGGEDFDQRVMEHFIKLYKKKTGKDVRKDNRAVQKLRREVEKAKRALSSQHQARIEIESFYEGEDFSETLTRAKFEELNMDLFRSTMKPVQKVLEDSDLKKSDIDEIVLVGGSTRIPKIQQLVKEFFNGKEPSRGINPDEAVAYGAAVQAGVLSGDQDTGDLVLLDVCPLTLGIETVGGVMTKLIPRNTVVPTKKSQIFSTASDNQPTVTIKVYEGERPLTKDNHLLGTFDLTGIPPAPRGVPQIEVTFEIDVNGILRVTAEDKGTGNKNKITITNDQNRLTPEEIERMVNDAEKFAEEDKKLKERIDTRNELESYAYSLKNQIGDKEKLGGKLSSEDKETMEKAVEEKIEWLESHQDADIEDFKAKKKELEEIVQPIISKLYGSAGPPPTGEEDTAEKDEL
Chain of Heat shock 70 kDa protein 1L (human) (P34931 whole entry): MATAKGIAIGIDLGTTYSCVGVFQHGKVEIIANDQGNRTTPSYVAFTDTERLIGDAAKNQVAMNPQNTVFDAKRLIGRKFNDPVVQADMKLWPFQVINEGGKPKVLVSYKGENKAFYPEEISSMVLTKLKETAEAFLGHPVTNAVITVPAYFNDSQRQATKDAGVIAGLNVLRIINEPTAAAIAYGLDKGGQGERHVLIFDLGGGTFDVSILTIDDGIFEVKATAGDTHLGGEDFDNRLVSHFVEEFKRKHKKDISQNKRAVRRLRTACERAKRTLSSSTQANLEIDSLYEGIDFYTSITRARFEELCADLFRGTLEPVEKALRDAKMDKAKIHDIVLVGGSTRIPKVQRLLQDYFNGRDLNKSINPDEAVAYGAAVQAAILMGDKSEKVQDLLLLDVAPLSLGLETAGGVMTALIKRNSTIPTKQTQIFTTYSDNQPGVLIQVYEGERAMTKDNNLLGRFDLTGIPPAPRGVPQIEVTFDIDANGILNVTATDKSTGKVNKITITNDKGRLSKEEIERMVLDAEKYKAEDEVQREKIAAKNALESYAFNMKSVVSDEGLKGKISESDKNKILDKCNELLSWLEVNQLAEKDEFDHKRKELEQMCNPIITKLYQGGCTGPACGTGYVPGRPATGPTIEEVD
Chain of Alpha-1-antitrypsin precursor/Serpin peptidase inhibitor, clade A, member 1 (human) (P01009 25-418 limits assumed): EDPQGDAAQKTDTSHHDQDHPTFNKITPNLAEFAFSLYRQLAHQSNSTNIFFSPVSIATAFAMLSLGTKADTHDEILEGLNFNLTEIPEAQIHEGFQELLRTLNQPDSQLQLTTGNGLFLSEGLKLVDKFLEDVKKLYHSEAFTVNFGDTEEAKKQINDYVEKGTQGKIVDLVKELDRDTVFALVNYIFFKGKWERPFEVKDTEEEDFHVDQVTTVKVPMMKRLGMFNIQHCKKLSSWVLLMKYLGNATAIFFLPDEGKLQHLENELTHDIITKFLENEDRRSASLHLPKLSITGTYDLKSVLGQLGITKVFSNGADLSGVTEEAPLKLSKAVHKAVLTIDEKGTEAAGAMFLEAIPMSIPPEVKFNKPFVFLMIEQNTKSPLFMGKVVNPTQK
Chain of Immunoglobulin J chain, Immunoglobulin J polypeptide (human) (P01591 23-159 limits assumed): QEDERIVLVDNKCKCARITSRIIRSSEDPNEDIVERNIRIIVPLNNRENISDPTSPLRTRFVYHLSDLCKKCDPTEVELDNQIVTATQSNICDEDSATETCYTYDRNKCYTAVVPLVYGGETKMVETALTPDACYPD
Chain of Hypothetical protein/Ig kappa chain V-II region RPMI 6410 precursor (human) (P06310 21-120): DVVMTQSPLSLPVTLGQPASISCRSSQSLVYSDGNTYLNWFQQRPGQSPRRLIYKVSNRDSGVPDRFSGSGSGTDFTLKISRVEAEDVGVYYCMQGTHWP
Chain of Complement component 4 binding protein, alpha, C4b-binding protein alpha chain precursor (C4bp) (human) (P04003 49-597 limits assumed): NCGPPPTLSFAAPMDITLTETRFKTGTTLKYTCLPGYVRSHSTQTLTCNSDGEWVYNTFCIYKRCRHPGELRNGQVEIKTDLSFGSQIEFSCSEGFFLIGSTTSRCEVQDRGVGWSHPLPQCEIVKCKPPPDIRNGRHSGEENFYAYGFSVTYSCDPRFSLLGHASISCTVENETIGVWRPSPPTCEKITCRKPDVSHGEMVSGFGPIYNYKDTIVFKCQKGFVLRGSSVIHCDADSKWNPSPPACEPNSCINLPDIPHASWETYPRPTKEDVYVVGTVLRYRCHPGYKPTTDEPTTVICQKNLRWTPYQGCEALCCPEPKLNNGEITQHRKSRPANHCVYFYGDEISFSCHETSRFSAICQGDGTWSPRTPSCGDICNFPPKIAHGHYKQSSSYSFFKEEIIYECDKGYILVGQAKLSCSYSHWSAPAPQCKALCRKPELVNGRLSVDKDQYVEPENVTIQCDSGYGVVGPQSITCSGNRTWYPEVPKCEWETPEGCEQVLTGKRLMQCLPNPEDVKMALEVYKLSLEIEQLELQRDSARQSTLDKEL
Chain of Dapper homolog 1 (hDPR1) (human) (Q9NYF0 whole entry): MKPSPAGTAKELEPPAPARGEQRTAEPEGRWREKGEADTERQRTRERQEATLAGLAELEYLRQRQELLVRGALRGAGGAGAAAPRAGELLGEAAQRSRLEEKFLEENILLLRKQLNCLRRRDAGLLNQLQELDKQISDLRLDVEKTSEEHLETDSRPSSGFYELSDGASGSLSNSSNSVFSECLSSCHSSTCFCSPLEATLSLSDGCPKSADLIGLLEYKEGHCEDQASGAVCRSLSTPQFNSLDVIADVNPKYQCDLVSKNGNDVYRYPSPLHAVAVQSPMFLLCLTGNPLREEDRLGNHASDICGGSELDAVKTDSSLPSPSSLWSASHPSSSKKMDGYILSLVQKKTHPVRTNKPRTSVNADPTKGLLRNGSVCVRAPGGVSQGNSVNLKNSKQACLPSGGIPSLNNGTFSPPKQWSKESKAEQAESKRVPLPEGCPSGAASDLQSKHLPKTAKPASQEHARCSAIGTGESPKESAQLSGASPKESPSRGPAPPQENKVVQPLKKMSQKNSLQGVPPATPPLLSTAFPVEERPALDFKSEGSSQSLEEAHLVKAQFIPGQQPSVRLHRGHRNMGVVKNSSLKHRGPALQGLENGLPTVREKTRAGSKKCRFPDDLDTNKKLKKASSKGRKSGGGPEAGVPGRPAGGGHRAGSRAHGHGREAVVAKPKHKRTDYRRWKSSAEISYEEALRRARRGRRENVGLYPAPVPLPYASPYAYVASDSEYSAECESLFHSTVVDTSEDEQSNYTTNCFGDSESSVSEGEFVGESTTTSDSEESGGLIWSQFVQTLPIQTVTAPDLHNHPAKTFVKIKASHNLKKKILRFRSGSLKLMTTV
Chain of Complement factor H-related protein 3 precursor (human) (Q02985 19-330 limits assumed): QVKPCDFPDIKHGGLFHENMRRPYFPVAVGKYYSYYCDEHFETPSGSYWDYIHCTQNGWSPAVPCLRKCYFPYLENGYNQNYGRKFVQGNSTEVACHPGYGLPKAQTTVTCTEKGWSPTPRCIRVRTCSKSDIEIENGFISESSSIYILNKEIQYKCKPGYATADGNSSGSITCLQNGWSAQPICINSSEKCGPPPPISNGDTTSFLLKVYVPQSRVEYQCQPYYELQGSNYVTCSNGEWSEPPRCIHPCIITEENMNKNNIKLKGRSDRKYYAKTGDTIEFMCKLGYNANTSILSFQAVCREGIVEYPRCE
Chain of Immunoglobulin lambda variable 3-25/V2-17 protein (Fragment) (human) (P01717 20-112 limits assumed): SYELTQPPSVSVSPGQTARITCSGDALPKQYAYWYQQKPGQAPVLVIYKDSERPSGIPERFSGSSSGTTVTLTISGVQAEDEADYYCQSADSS
Chain of Immunoglobulin heavy constant gamma 3 (G3m marker)/Ig gamma-3 chain C region (human) (P01860 other isoform, or with tags, fused parts or gaps limits assumed): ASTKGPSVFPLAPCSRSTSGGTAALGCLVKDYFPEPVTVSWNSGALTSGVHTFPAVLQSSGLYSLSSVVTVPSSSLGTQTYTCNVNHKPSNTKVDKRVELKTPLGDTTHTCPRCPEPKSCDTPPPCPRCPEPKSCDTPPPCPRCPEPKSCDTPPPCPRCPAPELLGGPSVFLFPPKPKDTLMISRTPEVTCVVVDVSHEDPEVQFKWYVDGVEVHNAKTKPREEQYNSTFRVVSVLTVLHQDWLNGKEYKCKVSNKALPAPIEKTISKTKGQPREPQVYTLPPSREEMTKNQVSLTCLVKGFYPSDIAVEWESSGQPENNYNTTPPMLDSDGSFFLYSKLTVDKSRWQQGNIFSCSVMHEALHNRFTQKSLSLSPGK
Chain of Ig lambda chain V-III region SH (human) (P01714 21-112 limits assumed): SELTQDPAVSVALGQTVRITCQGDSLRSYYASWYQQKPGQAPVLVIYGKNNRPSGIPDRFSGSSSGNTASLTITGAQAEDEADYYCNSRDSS

# of peptides [1]: 9 peptides
# of peptides [2]: 1 peptides
# of peptides [3]: 7 peptides
# of peptides [4]: 2 peptides
# of peptides [5]: 2 peptides
# of peptides [6]: 14 peptides
# of peptides [7]: 2 peptides
# of peptides [8]: 2 peptides
# of peptides [9]: 5 peptides
# of peptides [10]: 10 peptides
# of peptides [11]: 2 peptides
# of peptides [12]: 1 peptides
# of peptides [13]: 4 peptides
# of unique peptides [14]: 1 peptides
# of unique peptides [15]: 1 peptides
# of unique peptides [16]: 1 peptides
# of unique peptides [17]: 1 peptides
# of peptides [18]: 1 peptides
# of peptides [19]: 1 peptides
# of peptides [20]: 1 peptides
# of peptides [21]: 2 peptides
# of peptides [22]: 1 peptides
# of peptides [23]: 1 peptides
# of peptides [24]: 2 peptides
# of peptides [25]: 1 peptides
# of peptides [26]: 2 peptides
# of unique peptides [27]: 12 peptides
# of unique peptides [28]: 10 peptides
Substance: recombinant human BiP with C-terminal linker, FLAG-tag and His-tag (BiP-FLAG-His) (from UniProt P11021 19-654)
